# B1: human CIAO1 (subunit of the purified CTC) (natural protein)
# chain: not shown
# B2: human primase large subunit PriL (natural protein)
# chain: MEFSGRKWRKLRLAGDQRNASYPHCLQFYLQPPSENISLIEFENLAIDRVKLLKSVENLGVSYVKGTEQYQSKLESELRKLKFSYRENLEDEYEPRRRDHISHFILRLAYCQSEELRRWFIQQEMDLLRFRFSILPKDKIQDFLKDSQLQFEAISDEEKTLREQEIVASSPSLSGLKLGFESIYKIPFADALDLFRGRKVYLEDGFAYVPLKDIVAIILNEFRAKLSKALALTARSLPAVQSDERLQPLLNHLSHSYTGQDYSTQGNVGKISLDQIDLLSTKSFPPCMRQLHKALRENHHLRHGGRMQYGLFLKGIGLTLEQALQFWKQEFIKGKMDPDKFDKGYSYNIRHSFGKEGKRTDYTPFSCLKIILSNPPSQGDYHGCPFRHSDPELLKQKLQSYKISPGGISQILDLVKGTHYQVACQKYFEMIHNVDDCGFSLNHPNQFFCESQRILNGGKDIKKEPIQPETPQPKPSVQKTKDASSALASLNSSLEMDMEGLEDYFSEDS
# B3: full-length mouse DNA2 (enzyme)
# chain: MEPLDELDLLLLEEDGGAEAVPRVELLRKKADALFPETVLSRGVDNRYLVLAVETSQNERGAEEKRLHVTASQDREHEVLCILRNGWSSVPVEPGDIVHLEGDCTSEPWIIDDDFGYFILYPDMMISGTSVASSIRCLRRAVLSETFRGSDPATRQMLIGTILHEVFQKAISESFAPERLQELALQTLREVRHLKEMYRLNLSQDEILCEVEEYLPSFSKWAEDFMRKGPSSEFPQMQLSLPSDGSNRSSPCNIEVVKSLDIEESIWSPRFGLKGKIDVTVGVKIHRDCKMKYKVMPLELKTGKESNSIEHRSQVVLYTLLSQERREDPEAGWLLYLKTGQMYPVPANHLDKRELLKLRNWLAASLLHRVSRAAPGEEARLSALPQIIEEEKTCKYCSQIGNCALYSRAVEEQGDDASIPEAMLSKIQEETRHLQLAHLKYFSLWCLMLTLESQSKDNRKTHQSIWLTPASELEESGNCVGNLVRTEPVSRVCDGQYLHNFQRKNGPMPATNLMAGDRIILSGEERKLFALSKGYVKKMNKAAVTCLLDRNLSTLPATTVFRLDREERHGDISTPLGNLSKLMESTDPSKRLRELIIDFREPQFIAYLSSVLPHDAKDTVANILKGLNKPQRQAMKRVLLSKDYTLIVGMPGTGKTTTICALVRILSACGFSVLLTSYTHSAVDNILLKLAKFKVGFLRLGQSHKVHPDIQKFTEEEICRSRSIASLAHLEELYNSHPIVATTCMGINHPIFSRKTFDFCIVDEASQISQPVCLGPLFFSRRFVLVGDHQQLPPLVVNREARALGMSESLFKRLERNESAVVQLTVQYRMNRKIMSLSNKLTYAGKLECGSDRVANAVLALPNLKDARLSLQLYADYSDSPWLAGVLEPDNPVCFLNTDKVPAPEQVENGGVSNVTEARLIVFLTSTFIKAGCSPSDIGVIAPYRQQLRIISDLLARSSVGMVEVNTVDKYQGRDKSLILVSFVRSNEDGTLGELLKDWRRLNVALTRAKHKLILLGSVSSLKRFPPLGTLFDHLNAEQLILDLPSREHESLSHILGDCQRD
# B4: C-terminal fragment of mouse MMS19 (residues 911-1031) (domain or fragment)
# chain: ELPTLLSLLLEALSCPDSVVQLSTLSCLQPLLLEAPQIMSLHVDTLVTKFLNLSSSYSMAVRIAALQCMHALTRLPTSVLLPYKSQVIRALAKPLDDKKRLVRKEAVSARGEWFLLGSPGS
# Assays:
# [1] = target: T1, human primase small subunit PriS (human, UniProt P49642 1-420); experiment: cryo-EM structure
# T1 sequence: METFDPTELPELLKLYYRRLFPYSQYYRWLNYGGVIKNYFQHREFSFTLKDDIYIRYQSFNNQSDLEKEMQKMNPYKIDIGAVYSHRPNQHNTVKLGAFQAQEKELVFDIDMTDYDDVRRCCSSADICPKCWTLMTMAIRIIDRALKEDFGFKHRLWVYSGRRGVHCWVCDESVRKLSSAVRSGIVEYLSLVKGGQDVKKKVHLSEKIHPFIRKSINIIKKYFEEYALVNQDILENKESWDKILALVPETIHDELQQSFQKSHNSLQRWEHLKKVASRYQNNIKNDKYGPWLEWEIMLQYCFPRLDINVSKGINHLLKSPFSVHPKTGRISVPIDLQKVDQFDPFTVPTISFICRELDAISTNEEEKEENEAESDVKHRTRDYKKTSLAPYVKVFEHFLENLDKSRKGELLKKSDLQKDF
# full-length mouse DNA2 = target: B3; experiment: cryo-EM structure
# [2] = target: T2, human MMS19 (subunit of the purified CTC) (human, UniProt Q96T76 1-1030); experiment: cryo-EM structure
# T2 sequence: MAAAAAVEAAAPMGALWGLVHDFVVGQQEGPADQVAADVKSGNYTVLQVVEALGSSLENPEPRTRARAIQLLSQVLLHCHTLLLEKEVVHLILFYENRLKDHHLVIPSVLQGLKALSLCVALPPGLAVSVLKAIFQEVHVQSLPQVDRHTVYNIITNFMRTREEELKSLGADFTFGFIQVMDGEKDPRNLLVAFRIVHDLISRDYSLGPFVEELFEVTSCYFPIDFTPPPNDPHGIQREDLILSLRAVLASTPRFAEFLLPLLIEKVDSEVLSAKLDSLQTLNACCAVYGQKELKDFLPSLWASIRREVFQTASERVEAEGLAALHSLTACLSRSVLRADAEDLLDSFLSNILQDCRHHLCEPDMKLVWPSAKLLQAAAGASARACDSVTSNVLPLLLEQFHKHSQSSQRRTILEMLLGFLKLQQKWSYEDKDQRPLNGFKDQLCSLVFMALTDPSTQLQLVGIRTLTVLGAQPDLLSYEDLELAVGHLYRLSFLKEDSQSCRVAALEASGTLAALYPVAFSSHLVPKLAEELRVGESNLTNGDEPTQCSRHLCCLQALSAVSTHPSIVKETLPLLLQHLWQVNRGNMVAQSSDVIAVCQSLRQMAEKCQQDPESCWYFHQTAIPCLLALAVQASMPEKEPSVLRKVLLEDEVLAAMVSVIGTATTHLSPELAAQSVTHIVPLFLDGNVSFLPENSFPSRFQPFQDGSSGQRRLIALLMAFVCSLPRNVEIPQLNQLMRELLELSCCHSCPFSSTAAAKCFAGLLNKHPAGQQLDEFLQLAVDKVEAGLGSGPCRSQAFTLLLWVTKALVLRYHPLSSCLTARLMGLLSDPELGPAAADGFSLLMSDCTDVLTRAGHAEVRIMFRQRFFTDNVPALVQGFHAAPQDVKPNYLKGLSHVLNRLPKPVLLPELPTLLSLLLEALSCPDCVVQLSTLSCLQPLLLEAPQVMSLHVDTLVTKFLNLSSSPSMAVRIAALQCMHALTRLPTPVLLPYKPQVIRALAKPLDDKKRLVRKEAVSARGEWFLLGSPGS
# [3] = target: full-length human CIA targeting complex (MMS19-CIAO1-CIAO2B) (human, UniProt Q96T76;O76071;Q9Y3D0); experiment: cryo-EM structure
# Sequence of full-length human CIA targeting complex (MMS19-CIAO1-CIAO2B) (O76071 whole entry, chain 2 of 2): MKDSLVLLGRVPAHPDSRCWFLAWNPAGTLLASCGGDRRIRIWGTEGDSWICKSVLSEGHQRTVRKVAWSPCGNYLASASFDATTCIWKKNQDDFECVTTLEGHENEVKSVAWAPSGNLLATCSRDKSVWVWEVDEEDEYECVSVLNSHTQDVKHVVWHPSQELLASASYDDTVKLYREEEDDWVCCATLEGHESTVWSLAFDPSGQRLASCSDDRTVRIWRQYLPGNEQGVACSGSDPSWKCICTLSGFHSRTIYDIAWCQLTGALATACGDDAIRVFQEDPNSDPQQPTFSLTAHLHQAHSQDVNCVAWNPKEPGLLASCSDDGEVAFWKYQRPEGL
# Sequence of full-length human CIA targeting complex (MMS19-CIAO1-CIAO2B) (Q9Y3D0 whole entry, chain 3 of 2): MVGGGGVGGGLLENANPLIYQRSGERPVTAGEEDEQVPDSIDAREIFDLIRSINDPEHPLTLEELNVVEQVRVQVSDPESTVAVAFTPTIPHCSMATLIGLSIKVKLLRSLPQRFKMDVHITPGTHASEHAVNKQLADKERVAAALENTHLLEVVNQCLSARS
# [4] = target: T3, Drosophila melanogaster CIAO1-CIAO2B core complex (Drosophila melanogaster, UniProt Q7K1Y4;Q9VTC4); experiment: crystal structure
# T3 sequence 1: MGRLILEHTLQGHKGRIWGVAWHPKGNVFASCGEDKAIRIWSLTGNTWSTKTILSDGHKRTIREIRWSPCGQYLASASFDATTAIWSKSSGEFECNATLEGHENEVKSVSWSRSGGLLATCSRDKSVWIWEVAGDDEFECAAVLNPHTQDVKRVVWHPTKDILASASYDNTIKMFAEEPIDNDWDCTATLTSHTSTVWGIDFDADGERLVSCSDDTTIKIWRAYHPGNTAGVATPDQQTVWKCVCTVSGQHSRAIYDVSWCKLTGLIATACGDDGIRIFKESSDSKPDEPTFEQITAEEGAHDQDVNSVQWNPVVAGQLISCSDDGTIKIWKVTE
# T3 sequence 2: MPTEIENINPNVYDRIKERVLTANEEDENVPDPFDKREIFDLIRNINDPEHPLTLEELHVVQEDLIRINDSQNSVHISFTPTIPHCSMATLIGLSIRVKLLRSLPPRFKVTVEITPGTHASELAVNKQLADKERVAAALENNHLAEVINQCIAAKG
# [5] = target: T4, Drosophila melanogaster CIAO2B (Drosophila melanogaster, UniProt Q9VTC4 1-156); experiment: crystal structure
# T4 sequence: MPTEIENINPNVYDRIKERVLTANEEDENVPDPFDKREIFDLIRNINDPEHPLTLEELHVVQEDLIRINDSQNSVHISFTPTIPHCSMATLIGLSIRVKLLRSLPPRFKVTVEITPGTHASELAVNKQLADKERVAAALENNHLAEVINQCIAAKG
binder,measurement,setting,value
B1,binding result,[1],binds
same,binding result,full-length mouse DNA2,binds
B2,binding result,[2],binds
B3,binding result,[3],binds
B4,binding result,[4],binds
same,binding result,[5],binds

# From article doi:10.1101/2020.02.01.930206 (bioRxiv, 2020)
